The target of this assay is OT-I T cell receptor on OTi target T cells (splenocytes from OT-I mouse) (mouse). In words: cell-based or functional assay.

Cytotoxicity of CD8 CAR T cells on OTi cells data for 1 substance are collected here from US20240139242A1.

The substance “FITC-conjugated H2Kb-SIINFEKL tetramer (from UniProt P01901 22-305) (peptide-MHC)” came in with a cytotoxicity of CD8 CAR T cells on OTi cells greater than 50%.
